Substitutions are numbered along the chain they refer to. Names and notes keep the numbering of the source.
How the values were obtained:
[1] = target: GFP10-RhoB (wild-type RhoB fused to GFP10); assay: cell-based or functional assay
[2] = target: Ras binding domain of c-Raf (RsBD)-GFP11; assay: tripartite split-GFP complementation in GFP1-9 cells, flow cytometry
[3] = target: reconstituted split-GFP (positive cells: 10-R-11, 10-Zipper-11, 10-zipper/zipper-11 with GFP1-9); assay: cell-based or functional assay
[4] = target: T1, Rho-binding domain of Rhotekin (RBD)-GFP11; assay: tripartite split-GFP complementation in GFP1-9 cells, flow cytometry
T1 construct: also called RBD-11
T1 chain: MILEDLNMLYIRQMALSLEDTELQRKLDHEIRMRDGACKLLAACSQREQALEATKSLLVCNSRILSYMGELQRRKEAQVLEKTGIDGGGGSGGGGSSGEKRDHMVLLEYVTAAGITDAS

[5] = target: T1, Rho-binding domain of Rhotekin …; assay: tripartite split-GFP complementation in GFP1-9 cells, fluorescence microscopy

Q: With “cell-permeant recombinant TAT-C3 exoenzyme (from UniProt P15879 41-251)” as the molecule, how does the inhibition of RhoB activation (split-GFP fluorescence) [1] read?
A: > 10 µg/mL

Q: With “GFP10-H-Ras G12V (dominant positive, GTP-bound variant)” as the molecule, how does the induction ratio of split-GFP fluorescence against GDP-bound (S17N) H-Ras [2] read?
A: 3 fold

B1: Myc-VHH anti-GFP nanobody (VHH)
VHH: QVQLVESGGALVQPGGSLRLSCAASGFPVNRYSMRWYRQAPGKEREWVAGMSSAGDRSSYEDSVKGRFTISRDDARNTVYLQMNSLKPEDTAVYYCNVNVGFEYWGQGTQVTVSS
Q: For B1, which mean fluorescence intensity of the positive cells [3] is on record?
A: 4 fold

B2: GFP10-RhoB Q63L (constitutively active, dominant positive variant) (other)
chain: MGDLPDDHYLSTQTILSKDLNIDGGGGSGGGGSSGAAIRKKLVVVGDGACGKTCLLIVFSKDEFPEVYVPTVFENYVADIEVDGKQVELALWDTAGLEDYDRLRPLSYPDTDVILMCFSVDSPDSLENIPEKWVPEVKHFCPNVPIILVANKKDLRSDEHVRTELARMKQEPVRTDDGRAMAVRIQAYDYLECSAKTKEGVREVFETATRAALQKRYGSQNGCINCCKVL
notes: also called GFP10-Rho active mutant (Q63L)
Q: B2 was tested. Which “fold induction of split-GFP fluorescence against the inactive variant (T19N)” value [4] did it give?
A: 5 fold

B3: GFP10-RhoB T19N (dominant negative variant) (other)
chain: B2 chain with T53N, L97Q
Q: Does B3 bind [5]?
A: no binding

Reference: US20180164324A1 (INSERM INSTITUT NATIONAL DE LA SANT ET DE LA RECHERCHE M …, published 2018)
